The results in this text go back to the DeepSol protein solubility set.

The data set in a line: soluble on expression in E. coli; label from the status in PepcDB or PDB records.
As to “KTGFFVGPMAEFTLPIIGIGADVAALYSQTDLGADGEKTMKLKTFAVPVNLKWSFGLGSMLGAYIAAGPQFDFNIGNKTWTRELSLKKSTTSFNVGAGLKLIRHLQLGVNYNFALSKTGTYEYYTEGESGDGHHSVNIKNNTWQVSLAYLF”, the “soluble on expression in E. coli” value is listed as “not soluble”. Under “GAEPVDEEAPLLMKNQKDFSSYLMGRQSIYKRHIIEDFVRKMLPGISEHKAASINNAVYSNFVREYKMLVKPEVSKKNYSRDVPFPDIELSLLPGAKEILEKSRNANSRVILISNRGHGDLENEINHLGMMHYFDVVSGAEEVTLEKSHLPPSQMPEDLQKRLINSLNGSDEEALRATLSEAAIYAHPDSTTIERIDKKPDSTRLAESLERLSVQPNVPITSYGDQPSDIKQLKSVAEPKSRVLKGVIVNAQRDDVGREIDVDGVPTRVVSKITEL” stands “not soluble”; under “MKQVSRSALVSFSAEQMFNLVNDVAKYPEFLPGCSGSRIIESSGNGMVASVDVAKAGISKTFTTSNELIPGQAIMMNLVDGPFKTLRGGWIFTALDEQACKVELKLEFEFSSKMIEMAFGKIFNELTSNMVNAFTKRAKQVYECYEYLEHHHHHH”, “not soluble”. On to “MSLGSRNGEKDWENASTTSSVASGTEYTGPKLYKEPSAKSNKHIIQNALAHCCLAGKVNEGQKKKILEEMEKSDANNFLILFRDSGCQFRSLYTYCPETEEINKLTGIGPKSITKKMIEGLYKYNSDRKQFSHIPAKTLSASVDAITIHSHLWQTKRPVTPKKLLPTKEGHHHHHH”, for which the “soluble on expression in E. coli” value is “soluble”. Turning to “MLTRVPVLILAVIVMLALCQEPEKPEKRPALLSRYGRAVLPRYGKRSGNLMESSQNSLTEESSDVVCQLIDGKYICLPVDAGFLGEVNGSIKQNSKTKCPAFFKNVSFSLFFRAFYLTVPACTSKKNVLLTSTTSTINHQKLEPATTLSPIRQRRRCLFQIDFAYLTVCPSKCQEGTDTGKVADYLLSLGCSDMDVIEREMKRVCCPE”, the “soluble on expression in E. coli” value is on record as “not soluble”. For “QFDPSIVLTEVAMLLEKADINEEVERTKSHLKQFYGIILLEEPIGRKLDFLIQEMNREINTIGSKASSLKITEQVVEMKTTLEKIREQVQNVE” the value was “not soluble”; for “MDREALQHRVLITVSRSSLFRVVEGILEEGKVSSMASSITEYLLNNRYSRERALEHISVYLESELEKSGIDLDDGVDGISLAILFVYEELLENKSEFFSKIQEKSGHALHPPSSDSEE”, “not soluble”.

For “MGHHHHHHGGHMSLETKHSNRARSRKGALRGAVLAGALMALVGCQTSPAATTSSNTGGTNMQLQLTQEWDKTFPLSAKVEHRKVTFANRYGITLAADLYLPKNRGGDRLPAIVIGGPFGAVKEQSSGLYAQTMAERGFVTLAFDPSYTGESGGQPRNVASPDINTEDFSAAVDFISLLPEVNRERIGVIGICGWGGMALNAVAVDKRVKAVVTSTMYDMTRVMSKGYNDSVTLEQRTRTLEQLGQQRWKDAESGTPAYQPPYNELKGGEAQFLVDYHDYYMTPRGYHPRAVNSGNAWTMTTPLSFMNMPILTYIKEISPRPILLIHGERAHSRYFSETAYAAAAEPKELLIVPGASHVDLYDRLDRIPFDRIAGFFDEHLEGGS”, the “soluble on expression in E. coli” value is “soluble”. As for “MWRTEMRKFLVVLDDSRECLNAMRFAAMRAAHTGGGVAILSIIPPDEFNHWIGVGEVMREEARERIHAHFEVFAKWMRDKQGVEPELVIREGEAVPEIIAHVQEDPEIGVLVLGAGTDKKGPGPLVSQLSRSSGSLPIPITIVPGDLSKEKLEAIT”, the “soluble on expression in E. coli” value is “not soluble”.

As to “MSSFTHFNDQGRAKMVDISDKKATVRTAIACSSIVVTKEIYDKISHNEIGKGDVLAVAQIAGIMAAKRTSDIIPMCHPLLLKGVDVSFDWKQSDEQYRLLIEVKVKTEGSTGVEMEALTAASATALTVYDMCKAVDKGMIIGETYLLEKTGGKSGDYTRKS”, the “soluble on expression in E. coli” value was “not soluble”. “SLDMQHRIRQLFQASIETKQQALEVLPPYIEQASLVMVNALLNEGKILSCGNGGSAGDAQHFSSELLNRFERERPSLPAVALTTDSSTITSIANDYSYNEVFSKQIRALGQPGDVLLAISTSGNSANVIQAIQAAHDREMLVVALTGRDGGGMASLLLPEDVEIRVPSKITARIQEVHLLAIHCLCDLIDRQLFGSEEEG”: the “soluble on expression in E. coli” value is given as “soluble”. “MVKINITAETNGFVLLEHGEVFIKNNNDVSLKLIPNEQEVPLIINIEFANKGGRIASVDRNIVNDKLVFTCNNFQSEPGNWGGIIEPMLIAEMDDCNLYLSFLVWNIDTTNYNRLLNYSFWLKKK”: the “soluble on expression in E. coli” value is given as “not soluble”.
